These results are taken from patent publication US5395750, “Methods for producing proteins which bind to predetermined antigens” (Hoffmann-La Roche Inc., dated 1995).

For the assay, the target named is HIV-1 tat protein (HIV-1, UniProt P04608). In words: phage binding to tat coated magnetic beads; TR5 also selected in 4 separate screening experiments.

B1: phage TR5 (anti-tat Fv, synthetic single chain antibody displayed on FUSE5 phage) (scFv)
scFv: EVQLVESGRGLVQPGGSLRLSCAASGFTFSHFLVAWVRQAPGKGLEWVATYSMISRARVLDGSFNGRYTISRDDSKNTLYLQMNSLRAEDTAVYYCARIGSTHTIPRLSQYGGQGTLVTVSSGGGGSGGGGSGGGGSDIQMTQSPSSLSASVGDRVTITCKLRGPQPHAITWYQQKPGKAPKLLIYYDGQTLVGVPSRFSGSGSGTDFTPTISSLEPEDFATYYCTPTHKIDSPFGQGTKVEIKRT
As to B1, the binding result is reported as “binds”.
